According to patent publication US20230310629A1, “BISPECIFIC ANTIBODY-DRUG CONJUGATES TARGETING EGFR AND MUC1 AND USES THEREOF” (Merck Patent GmbH, priority 2020, published 2023):

Columns and labels:
WISH cells = experiment: WISH cell binding (Example 1); set-up: species or system human; unit not given here
human MUC1-VNTR peptide = human MUC1-VNTR peptide (Homo sapiens, UniProt P15941); experiment: Biacore binding to human MUC1-VNTR peptide (Example 1)
Description: An anti-MUC1 scFv (H02) was developed by affinity maturation of anti-MUC1 antibody HT186-D11 (see Thie H. et al. PLoS One […], 6, 1, e15921) using ribosome display selection. For the scFv library, CDRs H1, H2, H3 and L3 (SEQ ID NOs: 4, 5, 6, and 9) were targeted. scFv ribosome display selections were then performed against a biotinylated synthetic VNTR peptide of MUC ([…]-biotin) (SEQ ID NO:10).

[1] = human MUC1-VNTR, second data set

kd (human MUC1-VNTR peptide; human MUC1-VNTR peptide, first data set): 2.14E−04 ½
ka1 (human MUC1-VNTR peptide; [1]): 126000 M⁻¹ s⁻¹
kd1 (human MUC1-VNTR peptide; [1]): 0.0017 s⁻¹
B1: 1993-H02: anti-MUC1 antibody variant from affinity maturation of HT186-D11, with HT186-D11 light chain; developed as scFv (antibody, V domains shown)
VH: QMQLVQSEAELKKPGASVKVSCKASGYSFTSHFMHWVRQAPGQGLEWMGWIDPVTGGTKYAQNFQGWVTMTRDTSIRTAYLELSRLRSDDTAMYYCAREARADRGQFDKWGQGTLVTVAS
VL: QSVLTQPPSVSVAPGKTARITCGGNNIGSKSVHWYQQKPGQAPALVIYYGSNRPSGIPERFSGSNSGNTATLTISRVEAGDEADYYCQVWDSSSDWVFGGGTKLTVL
Bmax (WISH cells): 128920
Turbidity A600: 0.15
